{"source": "patent US7737158B2", "about": "“Processes for regulating blood glucose in a mammal” (Washington University, priority 2005, dated 2010)", "molecules": {"B1": {"name": "Nampt: Bacterially produced, His-tagged recombinant mouse nicotinamide phosphoribosyltransferase (protein)", "chain": "MNAAAEAEFNILLATDSYKVTHYKQYPPNTSKVYSYFECREKKTENSKVRKVKYEETVFYGLQYILNKYLKGKVVTKEKIQEAKEVYREHFQDDVFNERGWNYILEKYDGHLPIEVKAVPEGSVIPRGNVLFTVENTDPECYWLTNWIETILVQSWYPITVATNSREQKKILAKYLLETSGNLDGLEYKLHDFGYRGVSSQETAGIGASAHLVNFKGTDTVAGIALIKKYYGTKDPVPGYSVPAAEHSTITAWGKDHEKDAFEHIVTQFSSVPVSVVSDSYDIYNACEKIWGEDLRHLIVSRSTEAPLIIRPDSGNPLDTVLKVLDILGKKFPVTENSKGYKLLPPYLRVIQGDGVDINTLQEIVEGMKQKKWSIENVSFGSGGALLQKLTRDLLNCSFKCSYVVTNGLGVNVFKDPVADPNKRSKKGRLSLHRTPAGNFVTLEEGKGDLEEYGHDLLHTVFKNGKVTKSYSFDEVRKNAQLNIEQDVAPH"}}, "key": {"[1]": {"system": "wild type males", "assay": "Blood glucose after intraperitoneal injection of recombinant Nampt in fed wild type mice", "format": "in vivo, mouse", "details": "1000 pmoles intraperitoneally, fed wild type males, 0, 30, 60 min", "protocol": "If the NAD biosynthetic activity of Nampt is responsible for the phenotypes observed in Nampt^+/− mice, the administration of NMN, a product of the Nampt enzymatic reaction, should be able to correct their problems. To test this possibility, the same Nampt^+/− mice that were used for IPGTTs were injected with NMN at a dose of 500 mg/kg body weight intraperitoneally ˜14 hrs prior to IPGTTs. As a control, PBS was injected to the mice ˜14 hrs before conducting previous IPGTTs. […] Because these findings completely contradict the conclusion by Fukuhara et al., the reproducibility of the insulin-mimetic activity of this protein was examined. Here, 1000 pmoles of the bacterially produced recombinant protein of mouse His-tagged Nampt were injected intraperitoneally to fed wild type males. Blood glucose levels were monitored with a glucometer at 0, 30, and 60 min time points after injection."}, "[2]": {"molecular_target": "T1, mouse Nampt (Mus musculus, UniProt Q99KQ4)", "assay": "Enzyme-coupled fluorometric assay, kinetic characterization of recombinant Nampt", "format": "biochemical", "set-up": "expressed in transfected cells; cell extracts or culture supernatant, anti-FLAG immunoprecipitates", "protocol": "Enzymatic activities of recombinant Nampt and Nmnat proteins were measured by an enzyme-coupled fluorometric assay (see, e.g., FIG. 4B). In this enzyme-coupled reaction, NAD is converted to NADH by alcohol dehydrogenase, and the fluorescence of NADH is detected in a fluorometer. To establish this assay system, optimal reaction conditions for Nmnat were initially examined by varying ATP and Mg^2+ concentrations and pH of the reaction buffer. The resultant reaction buffer for Nmnat contained 50 mM HEPES [pH 7.4], 0.02% BSA, 12 mM MgCl2, 2 mM ATP, 1.5% ethanol, and 30 μg/ml alcohol dehydrogenase to convert NAD to NADH. To determine the kinetic parameters for Nmnat, 30 ng of purified His-tagged Nmnat and varying concentrations of NMN were added to 1 ml of the reaction buffer. The reactions were run at 37° C. and quenched at six time points by the addition of 250 μl of 0.5 M EDTA. The production of NADH was measured by excitation at 340 nm and emission at 460 nm in a fluorometer. For kinetic characterization of Nampt, 500 ng of His-tagged Nampt and varying concentrations of nicotinamide were reacted at 37° C. in 100 μl of a buffer containing 50 mM Tris-HCl [pH 7.5], 0.02% BSA, 12 mM MgCl2, 2.5 mM ATP, 10 μg/ml His-tagged Nmnat, 0.4 mM phosphoribosyl pyrophosphate (PRPP), 1.5% ethanol, and 30 μg/ml alcohol dehydrogenase. NADH production was measured continuously in a fluorometer.\nBy using this enzyme-coupled fluorometric assay, kinetic parameters of purified recombinant mouse Nampt and Nmnat for nicotinamide and NMN, respectively, were determined (see, e.g., Table 1). The Lineweaver-Burk plots for these two enzymes are shown, for example, in FIGS. 11A and 11B. […] The Km and Vmax of mouse Nmnat are consistent with previously reported values for human NMNAT-1 (Emanuelli et al., J. Biol. Chem. (2001) 276, 406-412)."}, "[3]": {"molecular_target": "T1, mouse Nampt", "assay": "HPLC detection of Nampt reaction products", "format": "biochemical", "set-up": "expressed in transfected cells; cell extracts or culture supernatant, anti-FLAG immunoprecipitates", "details": "37° C.", "protocol": "High performance liquid chromatography was used to detect Nampt reaction products. HPLC was performed with Waters 515 pumps and a 2487 detector (Waters, Mass.) with a Supelco LC-18-T column (15 cm×4.6 cm; Supelco, Pa.). The Nampt reaction was conducted at 37° C. for 15 min in 500 μl of reaction buffer (50 mM Tris-HCl [pH 7.5], 10 mM MgCl2, 50 mM nicotinamide, 0.2 mM PRPP) with 50 μg of the recombinant Nampt protein. The reaction was terminated by adding 125 μl of 1 M HClO4. Protein was then precipitated at 18,000 g, and 500 μl of the supernatant was neutralized with 40 μl of 3 M K2CO3. After centrifugation, 100 μl of sample was mixed with 400 μl of Buffer A (50 mM K2PO4/KHPO4, pH 7.0) and loaded into the HPLC system. The products from Nampt reaction were monitored by absorbance at 261 nm."}, "[4]": {"molecular_target": "T1, mouse Nampt", "assay": "Enzyme-coupled fluorometric assay of immunoprecipitated Nampt-FLAG and recombinant Nampt", "format": "biochemical", "set-up": "expressed in transfected cells; host or cells: mouse NIH3T3 fibroblasts and mouse HIB-1B preadipocytes (differentiated), stably transfected with pCXN2-Nampt-FLAG; cell extracts or culture supernatant, anti-FLAG immunoprecipitates", "details": "NMN synthesis, 55 min at 37° C., pH8.5; Nampt amount quantified by Western blotting", "protocol": "For immunoprecipitation of intracellular Nampt, whole cell extracts were prepared with ice-cold immunoprecipitation (IP) buffer (phosphate buffer saline [pH 7.4], 0.5% NP-40, 1 mM EDTA,1 mM NaF, 10 μM Trichostatin A, 10 mM nicotinamide, 0.5 mM DTT, protease inhibitor cocktail (Roche)) and mixed with agarose beads conjugated with the mouse monoclonal M2 anti-FLAG antibody (F2426, Sigma) for 3-4 hours at 4° C. For immunoprecipitation of extracellular Nampt, HIB-1B culture supernatants were collected after incubating differentiated HIB-1B cells overnight with DMEM without fetal bovine serum but supplemented with 1 μg/ml insulin and 1 nM triodothyronine, filtered through a 0.22-μm PES membrane, concentrated with Amicon Ultra-15 columns (Millipore, MA), and mixed with anti-FLAG beads for 3-4 hours at 4° C. Immunoprecipitates were washed twice with the IP buffer and twice with PBS.\nImmunoprecipitates on anti-FLAG beads were incubated in enzymatic reaction buffer (50 mM Tris-HCl (pH8.5), 100 mM NaCl, 0.25 mM Nicotinamide, 10 mM MgSO4, 1.5% Ethanol, 0.5 mM PRPP, 2.0 mM ATP) for 55 min at 37° C. After this reaction, mouse recombinant nicotinamide mononucleotide adenylyltransferase and yeast alcohol dehydrogenase (Sigma) were added at 10 μg/ml as the final concentration for each, and the mixture was incubated for 5 min at 37° C. Supernatants were then collected by spinning down anti-FLAG beads, and autofluorescence of NADH was measured in a Perkin Elmer LS 50B fluorometer (excitation: 340 nm; emission: 460 nm). Immunoprecipitates bound on anti-FLAG beads were extracted with Laemmli's sample buffer, boiled for 5 minutes, and analyzed by Western blotting with anti-Nampt antibodies. The amounts of Nampt used for enzymatic reactions were quantitated compared to the standards of mouse recombinant Nampt.\nThe immunoprecipitates from the HIB-1B culture supernatants were subjected to enzyme-coupled fluorometric assays (see Revollo et al., J. Biol. Chem., (2004)279, 50754-50763) to compare enzymatic activity of the intracellular and extracellular forms of Nampt. […] The Nampt enzymatic activity of the bacterially produced recombinant Nampt and the intracellular Nampt-FLAG® immunoprecipitated from HIB-1B and NIH3T3 cellular extracts were also measured and their kcat values calculated (see FIG. 16E). […] It is believed that a post-translational modification may be responsible for the altered enzymatic activity of extracellular Nampt produced by brown adipocytes. […] Despite the extensive mass spectrometric analysis of extracellular Nampt, the precise nature of the modification is currently unknown. Taken together, these findings provide strong evidence that Nampt functions as an NAD biosynthetic enzyme both intra- and extracellularly."}, "[5]": {"details": "purified His-tagged recombinant mouse Nampt, substrate nicotinamide"}}, "note": "“Also recorded” adds a separate entry of the source.", "data": [{"molecule": "B1", "values": [{"measurement": "blood glucose levels", "setting": "[1]; listed as recombinant Nampt", "result": "no significant effect"}, {"measurement": "blood glucose levels", "setting": "[1]; listed as recombinant Nampt protein", "result": "no decrease"}, {"measurement": "catalytic efficiency of Nampt, fold less than that of Nmnat", "setting": "[2]; Nampt (nicotinamide) versus Nmnat (NMN)", "result": "~46", "unit": "fold"}, {"measurement": "Vmax", "setting": "[2]; [5]", "result": 0.021, "unit": "µmol/min/mg"}, {"measurement": "kcat", "setting": "[2]; [5]", "result": 0.020, "unit": "s⁻¹"}, {"measurement": "Km", "setting": "[2]; purified His-tagged recombinant mouse Nampt, substrate nicotinamide, 37° C.", "result": 0.92, "unit": "µM"}, {"measurement": "synthesis of nicotinamide mononucleotide (NMN) from nicotinamide and PRPP", "setting": "[3]", "result": "robust synthesis"}, {"measurement": "synthesis of nicotinamide mononucleotide (NMN) from nicotinamide and PRPP", "setting": "[3]; listed as mouse Nampt", "result": "produced nicotinamide mononucleotide (NMN)"}, {"measurement": "synthesis of nicotinic acid mononucleotide (NaMN) from nicotinic acid and PRPP", "setting": "[3]; substrate specificity", "result": "failed to catalyze; also recorded: did not synthesize"}, {"measurement": "kcat", "setting": "[4]", "result": 0.035, "unit": "s⁻¹"}]}]}
